± gives the standard deviation of the averaged measurements.
test system: Saccharomyces cerevisiae; assay: protein stability index of tFT-peptide fusion (C-terminal peptide) (PSI (0-1 scale)); higher = more stable (slower turnover); conditions: genetic background: wild type; temperature: 30 C
Protocol: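 MPS profiling in S. cerevisiae of the tFT-X12 degron library: putative degron peptides plus stable controls, 12 aa, fused to the C-terminus of a sfGFP-mCherry timer. Cells are FACS-sorted into 8 mCherry/sfGFP bins and deep-sequenced. PSI runs from 0 (unstable) to 1 (stable). Backgrounds are wild type, das1Δ and doa10Δ at 30 °C, and wild type, das1Δ, cdc34-1 and cdc53-1 at 37 °C; 2-3 technical replicates each.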
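Note: PSI is a weighted mean of sequencing reads over stability bins, variants kept only with over 10 reads, mCherry proximal and sfGFP distal, peptide attached via GGGS linker.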

Row | Sequence | protein stability index
1 | FCCFFVHMSFFL | 0.282 ± 0.012
2 | FCFLLLVSFFFV | 0.219 ± 0.034
3 | FCICRFLFIFLG | 0.294 ± 0.029
4 | FCIFAMQICTSA | 0.108 ± 0.01
5 | FCSPFFFFLFRL | 0.315 ± 0.031
6 | FFFLPLFLVLSL | 0.29 ± 0.03
7 | FFGFYLKFVWCG | 0.152 ± 0.019
8 | FFPSFGLFLCPV | 0.357 ± 0.031
9 | FFSRIIAILVLM | 0.144 ± 0.0086
10 | FFVEKRVFFGII | 0.242 ± 0.015
11 | FFVMVFTVEVFV | 0.0875 ± 0.015
12 | FFVWLGWGMFYG | 0.437 ± 0.013
13 | FGALVVCFLTRC | 0.302 ± 0.04
14 | FGGFYGRRVLII | 0.209 ± 0.0024
15 | FGGYLRAGVFLT | 0.387 ± 0.043
16 | FGPVLLVSFLFS | 0.235 ± 0.054
17 | FGVRRSFVVFVV | 0.0934 ± 0.015
18 | FHLFIRRSAVIF | 0.351 ± 0.033
19 | FILFSEMFASSV | 0.255 ± 0.028
20 | FLCIFFFFLISF | 0.235 ± 0.035
21 | FLCLLSLFFLDF | 0.437 ± 0.011
22 | FLFCACIRVFSY | 0.133 ± 0.014
23 | FLFSSLFCFLFL | 0.46 ± 0.018
24 | FLLLVFGLLIDS | 0.222 ± 0.03
25 | FLLYRFSLVGCF | 0.108 ± 0.032
26 | FLLYVITYRSET | 0.225 ± 0.025

Row | Sequence | protein stability index
27 | FLPLLFFFFFRF | 0.403 ± 0.022
28 | FLPSLSLPLLLF | 0.346 ± 0.017
29 | FLSLVIVLRWFL | 0.242 ± 0.024
30 | FLWAVSLCRSLV | 0.218 ± 0.026
31 | FMRKLVVLVVLG | 0.206 ± 0.028
32 | FMVYRIHSSAVM | 0.257 ± 0.038
33 | FPGPPSPPPSYF | 0.6466 ± 0.0022
34 | FPVWTALLTVRA | 0.189 ± 0.014
35 | FRCRFLLPFYSV | 0.438 ± 0.014
36 | FRLCQRPVFLLS | 0.22 ± 0.017
37 | FSCSRNVLVTVV | 0.209 ± 0.013
38 | FSFPIIFFGMFL | 0.324 ± 0.033
39 | FSFSFWALLWFP | 0.429 ± 0.02
40 | FSFVVRMFFRIL | 0.0811 ± 0.015
41 | FSLSLFPYPFSL | 0.672 ± 0.021
42 | FSSFLGFIRFFV | 0.315 ± 0.022
43 | FTLFFVASVLDL | 0.386 ± 0.026
44 | FVGLFEYILLFV | 0.201 ± 0.028
45 | FVLLTFLFFWQF | 0.299 ± 0.018
46 | FVLWYFCCVGCM | 0.226 ± 0.03
47 | FVRCFWPFVFVF | 0.126 ± 0.0099
48 | FVRGWGIVFSLA | 0.268 ± 0.016
49 | FVWWFFFLSVVS | 0.216 ± 0.018
50 | FWILLRVLIFVL | 0.175 ± 0.028
51 | FYFMGFFFGLGM | 0.504 ± 0.016
52 | FYLFPSLPLLLL | 0.339 ± 0.03

Row | Sequence | protein stability index
53 | FYLSFWFLIFFF | 0.215 ± 0.036
54 | GCCFVCSVFWWG | 0.353 ± 0.015
55 | GCWRVELLVFMC | 0.0595 ± 0.017
56 | GDFYCSSVVLVV | 0.32 ± 0.031
57 | GEGISCLLRRLT | 0.286 ± 0.022
58 | GFLAVTVACVWR | 0.145 ± 0.037
59 | GFLWFCGVPVGW | 0.613 ± 0.012
60 | GFVSLFRLFIRL | 0.25 ± 0.013
61 | GGGHGSSCSVCD | 0.645 ± 0.0097
62 | GGGWGVFVVLWW | 0.213 ± 0.031
63 | GGIVLLVRVCGP | 0.422 ± 0.018
64 | GGLLSQLLRSIG | 0.279 ± 0.055
65 | GGRWRRRGFFFS | 0.628 ± 0.01
66 | GGYCQMFFLYFR | 0.0833 ± 0.0047
67 | GHHLRVRVILTA | 0.189 ± 0.019
68 | GICLVLVSDIWI | 0.39 ± 0.014
69 | GIGYMFLNVWLV | 0.0848 ± 0.015
70 | GKGVFGGLFFLV | 0.211 ± 0.021
71 | GLGLIRTSRLLC | 0.186 ± 0.029
72 | GLLAFVCISHTS | 0.344 ± 0.026
73 | GLPRRFLLLSVV | 0.137 ± 0.016
74 | GPHATYLYLVLA | 0.177 ± 0.018
75 | GPRRARLPNFLA | 0.0947 ± 0.025
76 | GQSRLVADLRQV | 0.676 ± 0.0081
77 | GRGFVLSVAVVA | 0.395 ± 0.021
78 | GRVCWVVLAGLV | 0.341 ± 0.026

same assay, conditions: genetic background: wild type; temperature: 37 C

Row | Sequence | protein stability index
79 | FCCFFVHMSFFL | 0.427 ± 0.025
80 | FCFLLLVSFFFV | 0.33 ± 0.014
81 | FCICRFLFIFLG | 0.411 ± 0.0063
82 | FCIFAMQICTSA | 0.205 ± 0.015
83 | FCSPFFFFLFRL | 0.361 ± 0.03
84 | FFFLPLFLVLSL | 0.329 ± 0.0071
85 | FFGFYLKFVWCG | 0.258 ± 0.025
86 | FFPSFGLFLCPV | 0.4685 ± 0.0018
87 | FFSRIIAILVLM | 0.192 ± 0.035
88 | FFVEKRVFFGII | 0.408 ± 0.018
89 | FFVMVFTVEVFV | 0.132 ± 0.0075
90 | FFVWLGWGMFYG | 0.6044 ± 0.0019
91 | FGALVVCFLTRC | 0.481 ± 0.027
92 | FGGFYGRRVLII | 0.437 ± 0.0092
93 | FGGYLRAGVFLT | 0.586 ± 0.016
94 | FGPVLLVSFLFS | 0.4008 ± 0.0017
95 | FGVRRSFVVFVV | 0.107 ± 0.014
96 | FHLFIRRSAVIF | 0.458 ± 0.0063
97 | FILFSEMFASSV | 0.137 ± 0.021
98 | FLCIFFFFLISF | 0.297 ± 0.02
99 | FLCLLSLFFLDF | 0.575 ± 0.015
100 | FLFCACIRVFSY | 0.195 ± 0.02
101 | FLFSSLFCFLFL | 0.527 ± 0.0061
102 | FLLLVFGLLIDS | 0.379 ± 0.11
103 | FLLYRFSLVGCF | 0.189 ± 0.011
104 | FLLYVITYRSET | 0.378 ± 0.038

Row | Sequence | protein stability index
105 | FLPLLFFFFFRF | 0.479 ± 0.023
106 | FLPSLSLPLLLF | 0.479 ± 0.018
107 | FLSLVIVLRWFL | 0.346 ± 0.02
108 | FLWAVSLCRSLV | 0.385 ± 0.014
109 | FMRKLVVLVVLG | 0.417 ± 0.046
110 | FMVYRIHSSAVM | 0.14 ± 0.014
111 | FPGPPSPPPSYF | 0.7451 ± 0.0065
112 | FPVWTALLTVRA | 0.22 ± 0.029
113 | FRCRFLLPFYSV | 0.603 ± 0.0033
114 | FRLCQRPVFLLS | 0.408 ± 0.02
115 | FSCSRNVLVTVV | 0.256 ± 0.0056
116 | FSFPIIFFGMFL | 0.51 ± 0.021
117 | FSFSFWALLWFP | 0.537 ± 0.02
118 | FSFVVRMFFRIL | 0.0988 ± 0.0082
119 | FSLSLFPYPFSL | 0.755 ± 0.018
120 | FSSFLGFIRFFV | 0.59 ± 0.04
121 | FTLFFVASVLDL | 0.511 ± 0.011
122 | FVGLFEYILLFV | 0.348 ± 0.0072
123 | FVLLTFLFFWQF | 0.441 ± 0.016
124 | FVLWYFCCVGCM | 0.342 ± 0.03
125 | FVRCFWPFVFVF | 0.14 ± 0.012
126 | FVRGWGIVFSLA | 0.467 ± 0.011
127 | FVWWFFFLSVVS | 0.334 ± 0.025
128 | FWILLRVLIFVL | 0.246 ± 0.03
129 | FYFMGFFFGLGM | 0.597 ± 0.023
130 | FYLFPSLPLLLL | 0.46 ± 0.0072

Row | Sequence | protein stability index
131 | FYLSFWFLIFFF | 0.315 ± 0.017
132 | GCCFVCSVFWWG | 0.507 ± 0.011
133 | GCWRVELLVFMC | 0.0748 ± 0.03
134 | GDFYCSSVVLVV | 0.445 ± 0.0082
135 | GEGISCLLRRLT | 0.544 ± 0.033
136 | GFLAVTVACVWR | 0.213 ± 0.026
137 | GFLWFCGVPVGW | 0.707 ± 0.018
138 | GFVSLFRLFIRL | 0.3595 ± 0.0028
139 | GGGHGSSCSVCD | 0.702 ± 0.019
140 | GGGWGVFVVLWW | 0.355 ± 0.038
141 | GGIVLLVRVCGP | 0.601 ± 0.025
142 | GGLLSQLLRSIG | 0.5807 ± 0.0052
143 | GGRWRRRGFFFS | 0.673 ± 0.014
144 | GGYCQMFFLYFR | 0.0907 ± 0.031
145 | GHHLRVRVILTA | 0.297 ± 0.013
146 | GICLVLVSDIWI | 0.568 ± 0.029
147 | GIGYMFLNVWLV | 0.122 ± 0.017
148 | GKGVFGGLFFLV | 0.465 ± 0.011
149 | GLGLIRTSRLLC | 0.296 ± 0.027
150 | GLLAFVCISHTS | 0.5396 ± 0.0015
151 | GLPRRFLLLSVV | 0.114 ± 0.02
152 | GPHATYLYLVLA | 0.22866 ± 0.00017
153 | GPRRARLPNFLA | 0.123 ± 0.022
154 | GQSRLVADLRQV | 0.675 ± 0.025
155 | GRGFVLSVAVVA | 0.467 ± 0.0049
156 | GRVCWVVLAGLV | 0.5394 ± 0.0042

From the supplement of paper PMC10724198
